Data taken from publication PMC9998502, “Functional selectivity of EM-2 analogs at the mu-opioid receptor” (Frontiers in Pharmacology, 2023).
pKi: −log10 of the molar value.

Experiments:
[1] = target: human mu opioid receptor (human) (UniProt P35372)
[2] = target: RLuc-tethered human mu receptor fusion protein (human) (UniProt P35372)
[3] = target: human mu opioid receptor (human) (UniProt P35372); experiment: radioligand binding; displacement of [3H]DAMGO from commercial membranes of CHO cells transfected with the human recombinant mu opioid receptor; Ki, mean ± SEM, n ≥ 3
[4] = target: human kappa opioid receptor (human) (UniProt P41145); experiment: radioligand binding; displacement of [3H]U-69593 from commercial membranes of CHO cells transfected with the human recombinant kappa opioid receptor; Ki, mean ± SEM, n ≥ 3
[5] = target: human delta opioid receptor (human) (UniProt P41143); experiment: radioligand binding; displacement of [3H]deltorphin-2 from commercial membranes of CHO cells transfected with the human recombinant delta opioid receptor; Ki, mean ± SEM, n ≥ 3
[6] = target: human delta opioid receptor (human) (UniProt P41143)
[7] = target: human kappa opioid receptor (human) (UniProt P41145)

Substance | calcium mobilization, CHO cells with human mu receptor and Gαqi5: α (Emax ratio to the standard agonist) [1] | BRET of mu-RLuc with Gβ1-RGFP promoted by the peptide, SH-SY5Y membranes: Emax (EM-2 = 1.00) [2] | BRET of mu-RLuc with β-arrestin 2-RGFP promoted by the peptide, living SH-SY5Y cells: Emax (EM-2 = 1.00) [2] | pKi [3] | pKi [4] | pKi [5] | BRET of mu-RLuc with β-arrestin 2-RGFP promoted by the peptide, living SH-SY5Y cells: Emax (EM-2 = 1.00), forced to 1 [2] | calcium mobilization, CHO cells with delta receptor and GαqG66Di5: α (Emax ratio to the standard agonist) [6] | calcium mobilization, CHO cells with human kappa receptor and Gαqi5: α (Emax ratio to the standard agonist) [7]
EM-2 analog 5 (Dmt-(R)-Nip-Phe-Phe-NH2) (peptide) | 1 | 1.11 | 1.26 | 9.85 | 6.25 | 6.23 | – | – | –
EM-2 analog 9 (Dmt-(R)-β3-Ala-Phe-Phe-NH2) (peptide) | 1 | 1.05 | 1.16 | 9.85 | 6.05 | 6.54 | – | – | –
EM-2 analog 12 (Tyr-Pro-(R)-β3-1-Nal-Phe-NH2) (peptide) | – | 0.96 | 0.73 | – | – | – | – | – | –
EM-2 analog 4 (Tyr-(R)-Nip-Phe-Phe-NH2) (peptide) | 0.99 | 1.11 | 1.3 | 9.07 | < 6.00 | < 6.00 | – | – | –
EM-2 analog 6 (Tyr-(R)-β2-Ala-Phe-Phe-NH2) (peptide) | 0.88 | 0.86 | – | 7.33 | < 6.00 | < 6.00 | 1 | – | –
EM-2 analog 8 (Tyr-(R)-β3-Ala-Phe-Phe-NH2) (peptide) | 0.99 | 0.96 | 1.12 | 9.36 | < 6.00 | < 6.00 | – | – | –
EM-2 analog 3 (Dmt-(R)-Pip-Phe-Phe-NH2) (peptide) | 0.7 | 0.83 | – | 8.41 | 7.14 | 7.43 | – | 0.56 | –
DPDPE (peptide) | – | – | – | – | – | – | – | 1 | –
EM-2 analog 11 (Dmt-Pro-(R)-β2-1-Nal-Phe-NH2) (peptide) | – | 0.81 | – | – | – | – | – | – | –
EM-2 analog 13 (Dmt-Pro-(R)-β3-1-Nal-Phe-NH2) (peptide) | – | 0.84 | 0.37 | – | – | – | – | – | –
EM-2 analog 1 (Dmt-Pro-Phe-Phe-NH2) (peptide) | – | – | – | – | 6.08 | 6.25 | – | – | –
dynorphin A (peptide) | – | – | – | – | – | – | – | – | 1
EM-2 analog 10 (Tyr-Pro-(R)-β2-1-Nal-Phe-NH2) (peptide) | – | 0.68 | – | – | – | – | – | – | –
endomorphin-2 (Tyr-Pro-Phe-Phe-NH2) (peptide) | – | – | – | – | < 6.00 | < 6.00 | – | – | –
EM-2 analog 7 (Dmt-(R)-β2-Ala-Phe-Phe-NH2) (peptide) | 0.95 | 0.98 | 0.61 | 9.51 | 6.09 | 6.24 | – | – | –
EM-2 analog 2 (Tyr-(R)-Pip-Phe-Phe-NH2) (peptide) | 0.64 | 0.83 | – | 7.75 | < 6.00 | 6.17 | – | – | –
